Where two headings read alike, the source gives them in different places.
Experiments:
[1] = target: Human PD-1/PDCD1 Protein (PD-1) (human, UniProt Q15116 25-167, limits assumed); experiment: SPR, Biacore 8K; PD-1 captured by anti-His antibody, antibody in flow
Procedure: The binding affinity of each antibody to human PD-1 was measured with Biacore 8K (Cytiva). Briefly, anti-His Tag antibody was immobilized by amine coupling using Amine Coupling Kit and His Capture Kit, onto 8 channels of a sensor chip (provided with 16 flow cells; one channel consisting of two flow cells) which had carboxymethyl dextran immobilized on a gold film. The immobilization was performed by feeding an activation solution (NHS and EDC mixed in equal amounts) at a flow rate of 10 μl/min for 7 minutes, an immobilization solution at a flow rate of 5 μl/min for 7 minutes, and 1 M ethanolamine hydrochloride-NaOH (pH 8.5) at a flow rate of 10 μl/min for 7 minutes. The buffer used at the time of immobilization was 1×HBS-EP+ Buffer. After the immobilization and before applying a sample, Human PD-1/PDCD1 Protein (PD-1) adjusted to 1 μg/ml with 1×HBS-EP+ Buffer was fed to one of the two flow cells of each channel in an amount of 20 μl at a flow rate of 10 μl/min to thereby capture PD-1 on the sensor chip. As regards the other flow cell, 1×HBS-EP+ Buffer was fed in the same manner to prepare a control flow cell. Each antibody was adjusted to 16 nM with 1×HBS-EP+ Buffer, and then subjected to 2-fold 7-step serial dilution using 1×HBS-EP+ Buffer. The resultant sample solution (30 μl) was fed to each flow cell at a flow rate of 10 μl/min and the response was measured. After subtracting the response of control flow cell from the response of the flow cell which was allowed to capture the ligand, KD value was calculated by curve fitting using Biacore 8K Evaluation Software.

[2] = target: T1, human PD-1 (wild-type), expressed on cells (human, UniProt Q15116 25-288); experiment: cell-based or functional assay
[3] = target: T1, human PD-1 (wild-type), expressed on …; experiment: cell-based or functional assay; remark: listed apart in the source

T1 sequence (Q15116 25-288 limits assumed): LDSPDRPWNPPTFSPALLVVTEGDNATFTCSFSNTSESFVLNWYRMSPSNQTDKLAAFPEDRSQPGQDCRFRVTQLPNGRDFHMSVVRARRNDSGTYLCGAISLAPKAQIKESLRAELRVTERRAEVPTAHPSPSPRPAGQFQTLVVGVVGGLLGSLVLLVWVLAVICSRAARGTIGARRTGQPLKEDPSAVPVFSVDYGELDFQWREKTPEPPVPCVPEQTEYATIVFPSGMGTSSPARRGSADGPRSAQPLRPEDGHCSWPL
Sequence of Human PD-1/PDCD1 Protein (PD-1) (Q15116 25-167 limits assumed): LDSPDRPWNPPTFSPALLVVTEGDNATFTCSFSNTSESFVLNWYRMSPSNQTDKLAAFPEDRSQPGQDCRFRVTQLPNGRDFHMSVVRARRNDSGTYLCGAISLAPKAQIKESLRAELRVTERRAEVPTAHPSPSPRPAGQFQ

B1: HM242-C1 (antibody, human IgG1, V domains shown)
VH: QVQLVQSGPEVKKPGASVKVVCKASGYTFTSYYIQWVKQRPGQGLEWIGWIYPGDGTTKYNEKFKGRVTMTIDKSTRTAYMELRSLRSDDTAVYYCASYYGSYFDYWGQGTLVTVSS
VL: DIQMTQTTSSLSASVGDRVTITCRASQDISNYLNWYQQKPDGTVTLLIYYTSKLHSGVPSRFSGSGSGTDYTLTISSLEQKDFATYYCQQSSTLPFTFGQGTKLEIK
notes: also called humanized HM242, VH ver.C / VL ver.1
B1 was tested, and the Kd [1] was < 17.9 pM and the “Cell-cell contact assay” value [2] was 19 ng/mL.

B2: HM242-C2 (antibody, human IgG1, V domains shown)
VH: QVQLVQSGPEVKKPGASVKVVCKASGYTFTSYYIQWVKQRPGQGLEWIGWIYPGDGTTKYNEKFKGRVTMTIDKSTRTAYMELRSLRSDDTAVYYCASYYGSYFDYWGQGTLVTVSS
VL: DIQMTQSPSSLSASVGDRVTITCRASQDISNYLNWYQQKPDGTVTLLIYYTSKLHSGVPSRFSGSGSGTDYTLTISSLQPEDFATYYCQQSSTLPFTFGQGTKLEIK
notes: also called humanized HM242, VH ver.C / VL ver.2
In the case of B2, the Kd [1] is reported as < 21.1 pM and the “Cell-cell contact assay” value [2] is reported as 18.1 ng/mL.

B3: HM242-D1 (antibody, human IgG1, V domains shown)
VH: QVQLVQSGPEVKKPGASVKVVCKASGYTFTSYYIQWVRQVPGQGLEWMGWIYPGDGTTKYNEKFKGRVTMTIDTSTSTAYMELRSLRSDDTAVYYCASYYGSYFDYWGQGTLVTVSS
VL: DIQMTQTTSSLSASVGDRVTITCRASQDISNYLNWYQQKPDGTVTLLIYYTSKLHSGVPSRFSGSGSGTDYTLTISSLEQKDFATYYCQQSSTLPFTFGQGTKLEIK
notes: also called humanized HM242, VH ver.D / VL ver.1
With B3 the Kd [1] was 103 pM and the “Cell-cell contact assay” value [2] was 24.8 ng/mL.

B4: humanized HM242-C3-IgG1-K322A (antibody, V domains shown)
VH: QVQLVQSGPEVKKPGASVKVVCKASGYTFTSYYIQWVKQRPGQGLEWIGWIYPGDGTTKYNEKFKGRVTMTIDKSTRTAYMELRSLRSDDTAVYYCASYYGSYFDYWGQGTLVTVSS
VL: DIQMTQSPSSLSASVGDRVTITCRASQDISNYLNWYQQKPGKAPKLLIYYTSKLHSGVPSRFSGSGSGTDYTLTISSLQPEDFATYYCQQSSTLPFTFGQGTKLEIKR
B4 was tested, and the Kd [1] was < 18.6 pM and the “Cell-cell contact assay” value [2] was 23.7 ng/mL.

B5: HM242-D2 (antibody, human IgG1, V domains shown)
VH: QVQLVQSGPEVKKPGASVKVVCKASGYTFTSYYIQWVRQVPGQGLEWMGWIYPGDGTTKYNEKFKGRVTMTIDTSTSTAYMELRSLRSDDTAVYYCASYYGSYFDYWGQGTLVTVSS
VL: DIQMTQSPSSLSASVGDRVTITCRASQDISNYLNWYQQKPDGTVTLLIYYTSKLHSGVPSRFSGSGSGTDYTLTISSLQPEDFATYYCQQSSTLPFTFGQGTKLEIK
notes: also called humanized HM242, VH ver.D / VL ver.2
B5 was tested, and the Kd [1] was < 60.3 pM and the “Cell-cell contact assay” value [2] was 33.3 ng/mL.

B6: humanized HM242-D3-IgG1-K322A (antibody, V domains shown)
VH: QVQLVQSGPEVKKPGASVKVVCKASGYTFTSYYIQWVRQVPGQGLEWMGWIYPGDGTTKYNEKFKGRVTMTIDTSTSTAYMELRSLRSDDTAVYYCASYYGSYFDYWGQGTLVTVSS
VL: DIQMTQSPSSLSASVGDRVTITCRASQDISNYLNWYQQKPGKAPKLLIYYTSKLHSGVPSRFSGSGSGTDYTLTISSLQPEDFATYYCQQSSTLPFTFGQGTKLEIKR
With B6 the Kd [1] was < 49.2 pM and the “Cell-cell contact assay” value [2] was 31.5 ng/mL.

B7: humanized HM297-H5-IgG1-K322A (antibody, V domains shown)
VH: QVQLVQSGPEVKKPGASVKIPCKASGYTFTDYNVDWVRQVPGQGLEWMGDIDPNNGGTIYNQKFKDRVTMTVDKSTRTAYMELRSLRSDDTAVYYCARWRGAMDYWGQGTLVTVSS
VL: DIQMTQSPSSLSASVGDRVTITCRASQDIDNYLKWYQQKPDGTVKLLIYDTSRLHSGVPSRFSGSGSGTDYTLTISSLKQEDFATYYCQQGYTLPWTFGQGTKLEIKR
In the case of B7, the Kd [1] is reported as 563 pM and the “Cell-cell contact assay” value [3] is reported as 96.4 ng/mL.

B8: HM297-I6 (antibody, human IgG1, V domains shown)
VH: QVQLVQSGPEVKKPGASVKVVCKASGYTFTDYNVDWVRQVPGQGLEWMGDIDPNNGGTIYNQKFKDRVTMTVDTSTRTAYMELRSLRSDDTAVYYCARWRGAMDYWGQGTLVTVSS
VL: DIQMTQSPSSLSASVGDRVTITCRASQDIDNYLKWYQQKPGKAPKLLIYDTSRLHSGVPSRFSGSGSGTDYTLTISSLQPEDFATYYCQQGYTLPWTFGQGTKLEIK
notes: also called humanized HM297, VH ver.I / VL ver.6
In the case of B8, the Kd [1] is reported as 3480 pM and the “Cell-cell contact assay” value [3] is reported as 137 ng/mL.
